Test results reported in patent US20180273635A1 (Zymeworks, published 2018).

Tests used:
Recombinant human HER2 [1] = biological target: T1, Recombinant human HER2 (human, UniProt P04626 23-652); assay: calculated from the SPR Ka ratio to WT v10013;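 also: SPR at 25 °C with constructs captured on an anti-human Fc chip and HER2 extracellular domain as analyte, kinetics fitted to a 1:1 Langmuir model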
T1 construct: extracellular domain; Analyte of the SPR assays; also called HER2 ECD; ECD2 of HER2
Protocol: (§1) The affinity towards HER2 ECD of the samples was measured by SPR on a Biacore T200 as follows. Between 2000 and 4000 RU of anti-human Fc injected at concentration between 5 and 10 μg/ml was immobilized on a CM5 chip using standard amine coupling. Antigen-binding constructs were captured on the anti-human Fc (injected at concentration at 0.51 microg/mL in PBST, 1 min at 10 microl/min) at response levels ranging from 120-270 RU. […] HER2 dilutions were analyzed in duplicates. Sensograms were fit globally to a 1: 1 Langmuir binding model, using the software provided with the Biacore T200. All experiments were conducted at 25° C.

Recombinant human HER2 [2] = biological target: T1, Recombinant human HER2; assay: SPR, Biacore T200, 25 C; variant captured on anti-human Fc, HER2 flowed;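 also: HER2 extracellular domain analyte run as duplicate dilutions over amine-coupled anti-Fc on a CM5 chip, rates from global sensorgram fitting with a 1:1 Langmuir model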
Protocol: as §1

Recombinant human HER2 [3] = biological target: T1, Recombinant human HER2; assay: SPR, 25 C; Ka ratio to WT v10013;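 also: constructs captured via anti-human Fc on CM5 chip, HER2 ECD as analyte in duplicate dilutions, sensorgrams globally fit to 1:1 Langmuir model on Biacore T200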

Binder | ΔΔG (Recombinant human HER2 [1]) [kcal/mol] | Kd (Recombinant human HER2 [2]) [nM] | koff (Recombinant human HER2 [2]) [s⁻¹] | kon (Recombinant human HER2 [2]) [M⁻¹ s⁻¹] | Ka, mut/Ka, WT (Recombinant human HER2 [3]) [fold]
Variant 14047 (antibody, human IgG1, kappa, OA (one-armed) format; clones 8775, 7917, 4372; also called v14047) heavy: EVQLVESGGGLVQPGGSLRLSCAASGFTFQDYTMDWVRQAPGKGLEWVADVNPNSGGSIYNQRFKGRFTLSVDRSWNTLYLQMNSLRAEDTAVYYCARNLGPSFYFDYWGQGTLVTVSSASTKGPSVFPLAPSSKSTSGGTAALGCLVKDYFPEPVTVSWNSGALTSGVHTFPAVLQSSGLYSLSSVVTVPSSSLGTQTYICNVNHKPSNTKVDKKVEPKSCDKTHTCPPCPAPELLGGPSVFLFPPKPKDTLMISRTPEVTCVVVDVSHEDPEVKFNWYVDGVEVHNAKTKPREEQYNSTYRVVSVLTVLHQDWLNGKEYKCKVSNKALPAPIEKTISKAKGQPREPQVYVYPPSRDELTKNQVSLTCLVKGFYPSDIAVEWESNGQPENNYKTTPPVLDSDGSFALVSKLTVDKSRWQQGNVFSCSVMHEALHNHYTQKSLSLSPG light: not shown not shown | -3.1 | ~0.1 | ~7.1e-06 | 70000 | ~188
Variant 14056 (antibody, human IgG1, kappa, OA (one-armed) format; clones 8775, 8781, 4372; also called v14056) heavy: EVQLVESGGGLVQPGGSLRLSCAASGFTFQDYTMDWVRQAPGKGLEWVADVNPNSGGSIYNQRFKGRFTLSVDRSWNTLYLQMNSLRAEDTAVYYCARNLGPSFYFDYWGQGTLVTVSSASTKGPSVFPLAPSSKSTSGGTAALGCLVKDYFPEPVTVSWNSGALTSGVHTFPAVLQSSGLYSLSSVVTVPSSSLGTQTYICNVNHKPSNTKVDKKVEPKSCDKTHTCPPCPAPELLGGPSVFLFPPKPKDTLMISRTPEVTCVVVDVSHEDPEVKFNWYVDGVEVHNAKTKPREEQYNSTYRVVSVLTVLHQDWLNGKEYKCKVSNKALPAPIEKTISKAKGQPREPQVYVYPPSRDELTKNQVSLTCLVKGFYPSDIAVEWESNGQPENNYKTTPPVLDSDGSFALVSKLTVDKSRWQQGNVFSCSVMHEALHNHYTQKSLSLSPG light: not shown not shown | -3 | ~0.11 | ~8.4e-06 | 76000 | ~148
Variant 14049 (antibody, human IgG1, kappa, OA (one-armed) format; clones 8776, 7919, 4372; also called v14049) heavy: EVQLVESGGGLVQPGGSLRLSCAASGFTFYDYTMDWVRQAPGKGLEWVADVNPNSGGSIYNQRFKGRFTLSVDRSWNTLYLQMNSLRAEDTAVYYCARNLGPSFYFDYWGQGTLVTVSSASTKGPSVFPLAPSSKSTSGGTAALGCLVKDYFPEPVTVSWNSGALTSGVHTFPAVLQSSGLYSLSSVVTVPSSSLGTQTYICNVNHKPSNTKVDKKVEPKSCDKTHTCPPCPAPELLGGPSVFLFPPKPKDTLMISRTPEVTCVVVDVSHEDPEVKFNWYVDGVEVHNAKTKPREEQYNSTYRVVSVLTVLHQDWLNGKEYKCKVSNKALPAPIEKTISKAKGQPREPQVYVYPPSRDELTKNQVSLTCLVKGFYPSDIAVEWESNGQPENNYKTTPPVLDSDGSFALVSKLTVDKSRWQQGNVFSCSVMHEALHNHYTQKSLSLSPG light: not shown not shown | -2.7 | ~0.19 | ~1.4e-05 | 77000 | ~103
Variant 14057 (antibody, human IgG1, kappa, OA (one-armed) format; clones 8774, 8781, 4372; also called v14057) heavy: EVQLVESGGGLVQPGGSLRLSCAASGFTFTDYTMDWVRQAPGKGLEWVADVNPNSGGSIYNQRFKGRFTLSVDRSWNTLYLQMNSLRAEDTAVYYCARNLGPWFYFDYWGQGTLVTVSSASTKGPSVFPLAPSSKSTSGGTAALGCLVKDYFPEPVTVSWNSGALTSGVHTFPAVLQSSGLYSLSSVVTVPSSSLGTQTYICNVNHKPSNTKVDKKVEPKSCDKTHTCPPCPAPELLGGPSVFLFPPKPKDTLMISRTPEVTCVVVDVSHEDPEVKFNWYVDGVEVHNAKTKPREEQYNSTYRVVSVLTVLHQDWLNGKEYKCKVSNKALPAPIEKTISKAKGQPREPQVYVYPPSRDELTKNQVSLTCLVKGFYPSDIAVEWESNGQPENNYKTTPPVLDSDGSFALVSKLTVDKSRWQQGNVFSCSVMHEALHNHYTQKSLSLSPG light: not shown not shown | -0.9 | 3.6 | 0.00045 | 120000 | 5
Variant 14051 (antibody, human IgG1, kappa, OA (one-armed) format; clones 7815, 8781, 4372; also called v14051) heavy: EVQLVESGGGLVQPGGSLRLSCAASGFTFQDYTMDWVRQAPGKGLEWVADVNPNSGGSIYNQRFKGRFTLSVDRSKNTLYLQMNSLRAEDTAVYYCARNLGPSFYFDYWGQGTLVTVSSASTKGPSVFPLAPSSKSTSGGTAALGCLVKDYFPEPVTVSWNSGALTSGVHTFPAVLQSSGLYSLSSVVTVPSSSLGTQTYICNVNHKPSNTKVDKKVEPKSCDKTHTCPPCPAPELLGGPSVFLFPPKPKDTLMISRTPEVTCVVVDVSHEDPEVKFNWYVDGVEVHNAKTKPREEQYNSTYRVVSVLTVLHQDWLNGKEYKCKVSNKALPAPIEKTISKAKGQPREPQVYVYPPSRDELTKNQVSLTCLVKGFYPSDIAVEWESNGQPENNYKTTPPVLDSDGSFALVSKLTVDKSRWQQGNVFSCSVMHEALHNHYTQKSLSLSPG light: not shown not shown | -2.4 | ~0.31 | ~1.64e-05 | 53000 | ~62

Now from value to binder:

ΔΔG (Recombinant human HER2 [1]) [kcal/mol] | Kd (Recombinant human HER2 [2]) [nM] | koff (Recombinant human HER2 [2]) [s⁻¹] | kon (Recombinant human HER2 [2]) [M⁻¹ s⁻¹] | Ka, mut/Ka, WT (Recombinant human HER2 [3]) [fold] | Binder
-3.3 | ~0.061 | ~5.3e-06 | 88000 | ~269 | Variant 14059 (antibody, human IgG1, kappa, OA (one-armed) format; clones 8776, 8781, 4372; also called v14059) heavy: EVQLVESGGGLVQPGGSLRLSCAASGFTFYDYTMDWVRQAPGKGLEWVADVNPNSGGSIYNQRFKGRFTLSVDRSWNTLYLQMNSLRAEDTAVYYCARNLGPSFYFDYWGQGTLVTVSSASTKGPSVFPLAPSSKSTSGGTAALGCLVKDYFPEPVTVSWNSGALTSGVHTFPAVLQSSGLYSLSSVVTVPSSSLGTQTYICNVNHKPSNTKVDKKVEPKSCDKTHTCPPCPAPELLGGPSVFLFPPKPKDTLMISRTPEVTCVVVDVSHEDPEVKFNWYVDGVEVHNAKTKPREEQYNSTYRVVSVLTVLHQDWLNGKEYKCKVSNKALPAPIEKTISKAKGQPREPQVYVYPPSRDELTKNQVSLTCLVKGFYPSDIAVEWESNGQPENNYKTTPPVLDSDGSFALVSKLTVDKSRWQQGNVFSCSVMHEALHNHYTQKSLSLSPG light: not shown not shown
-1.9 | 0.63 | 3.5e-05 | 56000 | 26 | Variant 14062 (antibody, human IgG1, kappa, OA (one-armed) format; clones 8789, 7919, 4372; also called v14062) heavy: EVQLVESGGGLVQPGGSLRLSCAASGFTFQDYTMDWVRQAPGKGLEWVADVNPNSGYSIYNQRFKGRFTLSVDRSKNTLYLQMNSLRAEDTAVYYCARNLGPWFYFDYWGQGTLVTVSSASTKGPSVFPLAPSSKSTSGGTAALGCLVKDYFPEPVTVSWNSGALTSGVHTFPAVLQSSGLYSLSSVVTVPSSSLGTQTYICNVNHKPSNTKVDKKVEPKSCDKTHTCPPCPAPELLGGPSVFLFPPKPKDTLMISRTPEVTCVVVDVSHEDPEVKFNWYVDGVEVHNAKTKPREEQYNSTYRVVSVLTVLHQDWLNGKEYKCKVSNKALPAPIEKTISKAKGQPREPQVYVYPPSRDELTKNQVSLTCLVKGFYPSDIAVEWESNGQPENNYKTTPPVLDSDGSFALVSKLTVDKSRWQQGNVFSCSVMHEALHNHYTQKSLSLSPG light: not shown not shown
-2.9 | ~0.13 | ~8.3e-06 | 63000 | ~124 | Variant 14063 (antibody, human IgG1, kappa, OA (one-armed) format; clones 8788, 8781, 4372; also called v14063) heavy: EVQLVESGGGLVQPGGSLRLSCAASGFTFQDYTMDWVRQAPGKGLEWVADVNPNSGYSIYNQRFKGRFTLSVDRSKNTLYLQMNSLRAEDTAVYYCARNLGPSFYFDYWGQGTLVTVSSASTKGPSVFPLAPSSKSTSGGTAALGCLVKDYFPEPVTVSWNSGALTSGVHTFPAVLQSSGLYSLSSVVTVPSSSLGTQTYICNVNHKPSNTKVDKKVEPKSCDKTHTCPPCPAPELLGGPSVFLFPPKPKDTLMISRTPEVTCVVVDVSHEDPEVKFNWYVDGVEVHNAKTKPREEQYNSTYRVVSVLTVLHQDWLNGKEYKCKVSNKALPAPIEKTISKAKGQPREPQVYVYPPSRDELTKNQVSLTCLVKGFYPSDIAVEWESNGQPENNYKTTPPVLDSDGSFALVSKLTVDKSRWQQGNVFSCSVMHEALHNHYTQKSLSLSPG light: not shown not shown
-0.9 | 3.9 | 0.00092 | 240000 | 4 | Variant 14058 (antibody, human IgG1, kappa, OA (one-armed) format; clones 8784, 7917, 4372; also called v14058) heavy: EVQLVESGGGLVQPGGSLRLSCAASGFTFQDYTMDWVRQAPGKGLEWVADVNPNSGGSIYNQRFKGRFTLSVDRSWNTLYLQMNSLRAEDTAVYYCARNLGPWFYFDYWGQGTLVTVSSASTKGPSVFPLAPSSKSTSGGTAALGCLVKDYFPEPVTVSWNSGALTSGVHTFPAVLQSSGLYSLSSVVTVPSSSLGTQTYICNVNHKPSNTKVDKKVEPKSCDKTHTCPPCPAPELLGGPSVFLFPPKPKDTLMISRTPEVTCVVVDVSHEDPEVKFNWYVDGVEVHNAKTKPREEQYNSTYRVVSVLTVLHQDWLNGKEYKCKVSNKALPAPIEKTISKAKGQPREPQVYVYPPSRDELTKNQVSLTCLVKGFYPSDIAVEWESNGQPENNYKTTPPVLDSDGSFALVSKLTVDKSRWQQGNVFSCSVMHEALHNHYTQKSLSLSPG light: not shown not shown
-0.3 | 9.2 | 0.0013 | 140000 | 2 | Variant 14060 (antibody, human IgG1, kappa, OA (one-armed) format; clones 8780, 8781, 4372; also called v14060) heavy: EVQLVESGGGLVQPGGSLRLSCAASGFTFQDYTMDWVRQAPGKGLEWVADVNPNSGGSIYNQRFKGRFTLSVDRSKNTLYLQMNSLRAEDTAVYYCARNLGPWFYFDYWGQGTLVTVSSASTKGPSVFPLAPSSKSTSGGTAALGCLVKDYFPEPVTVSWNSGALTSGVHTFPAVLQSSGLYSLSSVVTVPSSSLGTQTYICNVNHKPSNTKVDKKVEPKSCDKTHTCPPCPAPELLGGPSVFLFPPKPKDTLMISRTPEVTCVVVDVSHEDPEVKFNWYVDGVEVHNAKTKPREEQYNSTYRVVSVLTVLHQDWLNGKEYKCKVSNKALPAPIEKTISKAKGQPREPQVYVYPPSRDELTKNQVSLTCLVKGFYPSDIAVEWESNGQPENNYKTTPPVLDSDGSFALVSKLTVDKSRWQQGNVFSCSVMHEALHNHYTQKSLSLSPG light: not shown not shown
